Assay results published in patent US20100287629A1 (published 2010).

Biological target: T1, native human CD4 on the cell surface (human, UniProt P01730 26-458)
T1 construct: whole, on cells; also called CD4 on SupT1 cells; CD4 on human PBL/PBMC
Assay: flow cytometry on SupT1 cells; half-maximal fluorescence, four-parameter fit
Procedure: The avidity and affinity determinations described above were performed with recombinant CD4 (rCD4). To determine the avidity of the human monoclonal antibodies for native CD4 (nCD4). […] Specifically, serial dilutions of antibody were incubated with SupT1 cells for 6 hr on ice, washed and detected any bound antibody with FITC-goat anti-human Fcγ.
*Human monoclonal antibodies were incubated in serial dilutions with SupT1 cells for 6 hrs, washed twice and incubated with FITC-conjugated goat anti-human Fcγ antisera, washed and fixed. The Ka was calculated from the concentration of antibody yielding one-half of the maximum fluorescence as determined from a four-parameter fit.

Binder | Ka
human IgG kappa anti-CD4 monoclonal antibody 6G5 (antibody, V domains shown, Human IgG1 kappa from hybridoma of an HC2/KCo5/JHD/JCKD mouse; CDR3 VINWFDP (VH4-34, JH5); l.c; also called 6G5.1) VH: QVQLQQWGAGLLKPSETLSLTCAVYGGSFSGYYWSWIRQPPGKGLEWIGEINHSGSTNYNPSLKSRVTISVDTSKNQFSLKLSSVTAADTAVYYCARVINWFDPWGQGTLVTVSS VL: DIQMTQSPSSVSASVGDRVTITCRASQDISSWLAWYQHKPGKAPKLLIYAASSLQSGVPSRFSGSGSGTDFTLTISSLQPEDFATYYCQQANSFPYTFGQGTKLEIK | 1.9e+09 M⁻¹
human IgG kappa anti-CD4 monoclonal antibody 10C5 (antibody, V domains shown, Human IgG1 kappa from hybridoma of an HC2/KCo5/JHD/JCKD mouse; CDR3 VINWFDP (VH4-34, JH5); l.c; same primary B cell as 6G5; also called 10C5.6) VH: QVQLQQWGAGLLKPSETLSLTCAVYGGSFSGYYWSWIRQPPGKGLEWIGEINHSGSTNYNPSLKSRVTISVDTSKNQFSLKLSSVTAADTAVYYCARVINWFDPWGQGTLVTVSS VL: DIQMTQSPSSVSASVGDRVTITCRASQDISSWLAWYQHKPGKAPKLLIYAASSLQSGVPSRFSGSGSGTDFTLTISSLQPEDFATYYCQQANSFPYTFGQGTKLEIK | 1.8e+09 M⁻¹
